Substrate in series [1]: CCOc1ccc2ccc(=O)oc2c1
Put plainly: 7-ethoxycoumarin O-deethylation (ECOD), fluorescence of 7-hydroxycoumarin, Sf9 microsomes. It counts as biochemical, Culex quinquefasciatus. The following applies: 1 mM NADPH, 0.1 M sodium phosphate pH 7.5, 30 °C, 30 min, substrate 0.1 to 1.2 mM, apparent. The text has this: 7-ethoxycoumarin O-deethylation (ECOD), fluorescence of 7-hydroxycoumarin, Sf9 microsomes on CYP6AA7/CPR

Substrate in series [2]: CCOc1ccc2ccc(=O)oc2c1
The series is described as above. It counts as biochemical, Culex quinquefasciatus. The following applies: 1 mM NADPH, 0.1 M sodium phosphate pH 7.5, 30 °C, 30 min, substrate 0.1 to 1.2 mM, apparent. The text has this:
7-ethoxycoumarin O-deethylation (ECOD), fluorescence of 7-hydroxycoumarin, Sf9 microsomes on CYP9M10/CPR
The source holds these as a separate data set.

B1: CYP6AA7/CPR (Culex quinquefasciatus) (protein)
chain: MSLLNTLLYLVLPVAALIYLFVRRKLSYWADRNVPHAPGSFPMGSLQGMGTKYHMSHILERIYQQFKNESPAVGFYLTMKPTLMVTDLELVKQVLVKDFNSFRDRGVYYNEKDDPVSAHLFAIDGEKWRFLRNKLSPTFTSGKIKYMFNTMQEIGDEFVECFGRYEEREEAVDVKTLCGWFTCDVIGSCAFGLNCNSLKNEESELITIANRLFKPSPIDAMWQFFFMSFRDLSAKLRLLILPRDIAKYFMTLIPETVTYREQNNVTRPDFLQLLIQLKNKGTVDGAEQESSGETLTMNQVVAQSFVFMLGGFETTSTALTFALFELANNPEIQEKVRVEVSSVLARHDGKITYDALKEMTYLEQVVNETLRMYPPVPFVARNSNHSYHITHPDVTLDADTMVLVPVYAIHYDPDIYQNPTRFDPDRFTPEATQARHTHAFLPFGDGPRNCIGLRFALLEVKFGIAVLLSKFRFSPSAKMILPLELDISAPMMAAKGGVWLDVNKINSKE
notes: complete reading frames cloned from 4th instar larvae cDNA; microsomal protein, not purified; with NADPH--cytochrome P450 reductase
A word on the Km: it is the substrate concentration at which the rate is half of its maximum. In the case of B1, the Michaelis-Menten constant (Km) in series [1] is on record as 564.8 ± 14.7 µM.

B2: CYP9M10/CPR (Culex quinquefasciatus) (protein)
chain: MTSLEWLLLLVPTAIYLFYRWSVATFDYFEKRGVPFVKPVPLLGGMWNFFSGKMHMVDAGSLGYEMFPDSRFSGFFAFRKPGYLIHDPELVKQITIKDFDHFADHTNVVPIEADPVLGRALFFTEGTRWKHGRSGLSPAFTGRKMRNMFALLSNYMEGAMGRLVDDARRDGGLELEMRDLFQKLGNDVTTSLSFGVEIDSVHNPNNEFMRRGKELIATDGIQGLKFLLLTVLPKSFFRTLRIRIIPKEATDFYVDVISKTIKQREEHNIVRPDFIHLLVQGRKNELKMEQADDQLKSAGFSTVEEHLQSSTENSQYSDLDITAAAASFFFGGLETTTTVICFALYEMSQNPNVKQKLQAEIDQVKEQLSTTDSKLSYEVLQNMKYLDMVVSETLRRWAPLGLTNRACTKPYTIEDNNGTKVSIQVGDLIQIPIQSIHRDHRFYPDPYKFDPERFSEENKANINRSAFLPFGSGPRNCIGSRLALMQTKCFLYYTLANFELELCPKTDVPIKLNKRSVSLDTLSGFWFRMVPRGEMKK
notes: as for B1
Regarding B2, the Michaelis-Menten constant (Km) in series [2] stood at 779.3 ± 16.0 µM.

For the origin of these results see PMC5428437, “The function of two P450s, CYP9M10 and CYP6AA7, in the permethrin resistance of Culex quinquefasciatus” (Scientific Reports, 2017).
